Assay results: patent publication US20250296958A1, “GL[…] E[…]” (THE ADMINISTRATORS OF THE TULANE EDUCATIONAL FUND, priority 2022, published 2025)

How the values were obtained:
delta opioid receptor [1] = molecular target: delta opioid receptor (UniProt P41143); test: PDSP receptor binding
delta opioid receptor [2] = molecular target: delta opioid receptor (UniProt P41143); test: PDSP receptor binding; log of Ki in M
delta opioid receptor [3] = molecular target: delta opioid receptor (UniProt P41143); test: PDSP receptor binding, selectivity against MOR

ZH853 (peptide) showed a Ki (delta opioid receptor [1]) of 271 nM, a Log Ki (delta opioid receptor [2]) of -6.57 and a del/mu (ratio of Ki at DOR to Ki at MOR) (delta opioid receptor [3]) of 291.
